Results: US20230110188A1 (ARGENX IIP, published 2023)
Substitutions are numbered along the chain they refer to.

T1: Human MuSK (R&D Systems, cat. 10189-MK, histidine tag) (human, UniProt O15146 24-495)
T1 construct: Bought protein; also called human monomeric MuSK-6xhis; not shown: histidine tag (6xhis)
T1 sequence: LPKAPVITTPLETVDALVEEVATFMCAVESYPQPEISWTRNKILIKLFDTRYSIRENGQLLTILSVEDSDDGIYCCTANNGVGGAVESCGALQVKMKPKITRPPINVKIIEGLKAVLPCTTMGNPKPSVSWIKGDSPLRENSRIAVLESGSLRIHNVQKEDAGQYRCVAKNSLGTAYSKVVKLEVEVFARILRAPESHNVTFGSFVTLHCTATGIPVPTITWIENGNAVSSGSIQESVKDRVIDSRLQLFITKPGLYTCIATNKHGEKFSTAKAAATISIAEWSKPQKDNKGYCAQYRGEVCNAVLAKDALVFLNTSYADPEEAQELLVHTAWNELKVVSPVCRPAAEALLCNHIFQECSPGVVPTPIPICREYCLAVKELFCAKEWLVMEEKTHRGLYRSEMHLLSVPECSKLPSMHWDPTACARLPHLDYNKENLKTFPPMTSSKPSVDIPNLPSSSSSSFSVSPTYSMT

T2: Mouse MuSK as it stands on mouse muscle (neuromuscular junctions, C2C12 myotubes) (mouse, UniProt Q61006 22-868)
T2 sequence (looked up): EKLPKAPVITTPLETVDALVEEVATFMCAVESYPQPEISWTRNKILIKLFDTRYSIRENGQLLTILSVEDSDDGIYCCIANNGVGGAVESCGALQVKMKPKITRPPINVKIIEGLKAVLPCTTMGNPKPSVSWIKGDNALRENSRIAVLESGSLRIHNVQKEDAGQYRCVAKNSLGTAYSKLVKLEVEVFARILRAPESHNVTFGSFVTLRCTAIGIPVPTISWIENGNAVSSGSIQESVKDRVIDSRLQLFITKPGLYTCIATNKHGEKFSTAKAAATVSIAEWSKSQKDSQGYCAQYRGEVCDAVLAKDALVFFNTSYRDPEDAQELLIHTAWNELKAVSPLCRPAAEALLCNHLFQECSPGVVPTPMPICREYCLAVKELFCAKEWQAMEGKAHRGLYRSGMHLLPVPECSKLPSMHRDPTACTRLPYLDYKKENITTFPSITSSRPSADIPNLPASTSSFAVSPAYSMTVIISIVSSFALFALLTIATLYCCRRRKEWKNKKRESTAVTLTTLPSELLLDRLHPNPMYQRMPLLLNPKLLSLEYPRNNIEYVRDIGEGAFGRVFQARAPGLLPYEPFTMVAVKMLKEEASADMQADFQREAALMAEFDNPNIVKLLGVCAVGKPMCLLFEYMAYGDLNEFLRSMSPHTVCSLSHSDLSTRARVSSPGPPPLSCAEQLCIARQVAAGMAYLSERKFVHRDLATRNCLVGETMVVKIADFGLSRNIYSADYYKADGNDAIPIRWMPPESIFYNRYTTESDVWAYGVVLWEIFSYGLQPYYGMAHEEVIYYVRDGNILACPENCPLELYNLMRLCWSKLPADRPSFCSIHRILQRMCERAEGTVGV

B1: 3D10a (antibody, human IgG1, kappa, L234A L235A, V domains shown)
VH: EVQLVESGGGLVKPGGSLRLSCAASGFTFSASTMAWVRQAPGKGLEWVSSVSGDSHHIYYADSLKGRFTISRDNAKNSLYLQMNSLRAEDTAVYYCARERLLRLGVGFDSWGQGTLVTVSS
VL: DIQMTQSPSSLSASVGDRVTITCRASQRISGFVNWYQQKPGKAPKLLIYAASTLQSGVPSRFSGSGSGTDFTLTISSLQPEDFATYYCQQSYSPLYTFGQGTKLEIKR
B2: 3F6c (antibody, human IgG1, kappa, L234A L235A, V domains shown)
VH: EVQLVESGGGLVKPGGSLRLSCAASGFTFSSYTMDWVRQAPGKGLEWVSSIGSNGDYIYYADSVRGRFTISRDNAKNSLYLQMNSLRAEDTAVYYCARGQLAVAGTHFDYWGQGTLVTVSS
VL: B1 VL with R28K, I29V, S30N, G31K, F32Y, Y96S
B3: 4D3 (antibody, human IgG1, kappa, L234A L235A, V domains shown)
VH: B1 VH with A31S, S32Y, A35T, V51I, G53S, D54G, S55G, H57Y, A61T, S110F
VL: B1 VL with R28S, F32Y, V33L, P94A
B4: 3D9b (antibody, human IgG1, kappa, L234A L235A, V domains shown)
VH: EVQLVESGGGLVKPGGSLRLSCAASGFTFSTYTMHWVRQAPGKGLEWVSSISSRSAYKYYADSVKGRFTISRDNAKNSLYLQMNSLRAEDTAVYYCARDFFQLGPPRFDSWGQGTLVTVSS
VL: B1 VL with G31S, V33L, A50G, T53N, L95S

Target: T1, Human MuSK (R&D Systems, cat. 10189-MK, …)
Test: SPR (Biacore), antibody captured on anti-hFc chip; 0.625 nM; dissociation pH 7.4
Source text: (§1) In order to study pH dependent binding of our antibodies to MuSK, the Biacore was used with the same setup as described in the paragraph entitled “Binding affinity for mouse, human and rhesus monkey recombinant MuSK in Biacore”. 6. […] For the other antibodies there is no real difference observed between pH 7.4 and 5.5.

koff [s⁻¹]	Binder
0.00013	B1
4e-05	B2
0.00016	B3
0.00014	B4

Target: T2, Mouse MuSK as it stands on mouse muscle …
Test: cell-based or functional assay

AChR clusters larger or equal to 3 µm compared to agrin; Exp 1, batch Argenx	AChR clusters larger or equal to 3 µm compared to agrin; Exp 2, batch Argenx	AChR clusters larger or equal to 3 µm compared to agrin; Exp 3, batch UPX	Binder
64 % of agrin	99 % of agrin	71 % of agrin	B1
71 % of agrin	105 % of agrin	69 % of agrin	B2
102 % of agrin	73 % of agrin	72 % of agrin	B3
89 % of agrin	95 % of agrin	91 % of agrin	B4

Target: T1, Human MuSK (R&D Systems, cat. 10189-MK, …)
Test: SPR (Biacore), antibody captured on anti-hFc chip; 10 nM; dissociation pH 7.4
Source text: as §1

koff [s⁻¹]	Binder
0.00014	B1
6e-05	B2
0.00013	B3
8e-05	B4

Target: T1, Human MuSK (R&D Systems, cat. 10189-MK, …)
Test: SPR (Biacore), antibody captured on anti-hFc chip; 0.3125 nM; dissociation pH 7.4
Source text: as §1

koff [s⁻¹]	Binder
0.00018	B1
0.00015	B2
0.00013	B3
0.00018	B4

Target: T1, Human MuSK (R&D Systems, cat. 10189-MK, …)
Test: SPR (Biacore), antibody captured on anti-hFc chip; 1.25 nM; dissociation pH 7.4
Source text: as §1

koff [s⁻¹]	Binder
0.00016	B1
7e-05	B2
0.00015	B3
0.00014	B4

Target: T2, Mouse MuSK as it stands on mouse muscle …
Test: cell-based or functional assay
Remark: another data set of the same source

AChR clusters larger or equal to 15 µm (large clusters) compared to agrin; antibody 0.11 µg/ml	AChR clusters larger or equal to 15 µm (large clusters) compared to agrin; antibody 1.1 µg/ml	AChR clusters larger or equal to 15 µm (large clusters) compared to agrin; antibody 11 µg/ml	AChR clusters larger or equal to 15 µm (large clusters) compared to agrin; antibody 110 µg/ml	Binder
62 % of agrin	64 % of agrin	61 % of agrin	58 % of agrin	B1
60 % of agrin	46 % of agrin	51 % of agrin	50 % of agrin	B2
44 % of agrin	58 % of agrin	61 % of agrin	58 % of agrin	B3
49 % of agrin	84 % of agrin	79 % of agrin	66 % of agrin	B4

Target: T2, Mouse MuSK as it stands on mouse muscle …
Test: cell-based or functional assay
Remark: another data set of the same source

MuSK phosphorylation, % versus agrin (C2C12 myotubes) [% versus agrin]	Binder
83	B1
100	B2
112	B3
205	B4

Target: T1, Human MuSK (R&D Systems, cat. 10189-MK, …)
Test: SPR (Biacore), MuSK-coated chip, antibody alone (run of first antibody 3D9b)
Description: A chip was coated with ˜5000 RU of human MuSK (Lot nr DHUCO 11908A, batch nr 1089_MK). In a first experiment the saturating concentration of the pre-leads was determined. This is the concentration where the amplitude of a specific pre-lead doesn't increase anymore when additional pre-lead is injected on the immobilized MuSK.

amplitude of prelead without presaturating MuSK (RU)	Binder
189	B1
235	B2
188	B3
3970	B4

Target: T1, Human MuSK (R&D Systems, cat. 10189-MK, …)
Test: SPR (Biacore), antibody captured on anti-hFc chip; 5 nM; dissociation pH 5.5
Source text: as §1

koff [s⁻¹]	Binder
0.0001	B1
0.0002	B2
0.00018	B3
4e-05	B4

Target: T1, Human MuSK (R&D Systems, cat. 10189-MK, …)
Test: SPR (Biacore), antibody captured on anti-hFc chip; 10 nM; dissociation pH 5.5
Source text: as §1

koff [s⁻¹]	Binder
0.00011	B1
0.00023	B2
0.00019	B3
4e-05	B4
